{"source": "paper PMC13787487", "about": "(2026)", "experiment_in_all_cases": "FP", "key": {"SHANK3 PDZ": {"molecular_target": "T1, SHANK3 PDZ (UniProt Q9BYB0)", "T1 chain": "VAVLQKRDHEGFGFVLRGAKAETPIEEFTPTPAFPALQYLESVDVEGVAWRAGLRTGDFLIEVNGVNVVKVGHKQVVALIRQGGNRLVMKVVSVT"}, "SHANK2 PDZ": {"molecular_target": "T2, SHANK2 PDZ (UniProt Q9UPX8)", "T2 chain": "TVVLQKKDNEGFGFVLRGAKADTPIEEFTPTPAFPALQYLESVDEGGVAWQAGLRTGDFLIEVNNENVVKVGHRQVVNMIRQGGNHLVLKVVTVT"}, "SHANK1 PDZ": {"molecular_target": "T3, SHANK1 PDZ (UniProt Q9Y566)", "T3 chain": "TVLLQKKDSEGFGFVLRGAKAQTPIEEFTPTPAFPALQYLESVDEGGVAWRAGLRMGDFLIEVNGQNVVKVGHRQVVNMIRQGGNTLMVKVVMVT"}, "PSD-95 PDZ2": {"molecular_target": "T4, PSD-95 PDZ2 (UniProt P78352)", "T4 chain": "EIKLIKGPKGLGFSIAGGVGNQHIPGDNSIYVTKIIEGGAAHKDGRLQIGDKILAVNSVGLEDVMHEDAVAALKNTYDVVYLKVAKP"}, "PSD-95 PDZ3": {"molecular_target": "T5, PSD-95 PDZ3 (UniProt P78352)", "T5 chain": "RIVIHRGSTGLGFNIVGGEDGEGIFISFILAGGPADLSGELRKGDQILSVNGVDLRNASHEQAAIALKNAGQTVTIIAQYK"}}, "data": [{"binder": "YNRTNRSRMPNLNDLKETAL", "note": "[CDKL5-1 941-960]", "values": [{"measurement": "Kd", "setting": "SHANK3 PDZ", "value": 8.6, "unit": "µM"}, {"measurement": "Kd", "setting": "SHANK2 PDZ", "value": 5.2, "unit": "µM"}, {"measurement": "Kd", "setting": "SHANK1 PDZ", "value": 7.6, "unit": "µM"}, {"measurement": "Kd", "setting": "PSD-95 PDZ2", "value": 31.3, "unit": "µM"}, {"measurement": "Kd", "setting": "PSD-95 PDZ3", "value": 40.7, "unit": "µM"}]}]}
